{"source": "patent US5607850A", "about": "“Enzyme from microbial source: phthalyl amidase” (Eli Lilly and Company, priority 1995, dated 1997)", "molecules": {"B1": {"name": "phthalyl amidase: specific enzyme which readily removes the phthalyl moiety from phthalyl-containing amides, from Xanthobacter agilis (protein)", "chain": "QAPSVHQHVAFTEEIGDLPDGSSYMIRVPENWNGVLIRDLDLVSGTSNSNAARYETMLKEGFAVAGTARHPLRQWQYDPAHEIENLNHVLDTFEENYGSPERVIQYGCSGGAHVSLAVAEDFSDRVDGSVALAAHTPVWIMNSFLDGWFSLQSLIGEYYVEAGHGPLSDLAITKLPNDGSSNSSGHGMEGDLPAAWRNAFTAANATPEGRARMALAFALGQWSPWLADNTPQPDLDDPEAIADSVYESAMRLAGSPGGEARIMFENAARGQQLSWNDDIDYADFWENSNPAMKSAVQELYDTAGLDLQSDIETVNSQPRIEASQYALDYWNTPGRNVIGDPEVPVLRLHMIGDYQIPYSLVQGYSDLISENNNDDLYRTAFVQSTGHCNFTAAESSAAIEVMMQRLDTGEWPSTEPDDLNAIAEASNTGTEARFMALDGWEIPEYNRTWKPE"}}, "key": {"[1]": {"assay": "Effect of pH on phthalyl amidase activity", "format": "biochemical", "protocol": "The effect of pH on the reaction rate of the analytical scale purified enzyme was determined using phthalamido carbacephem (III) as substrate. [drawing 5]\nA typical reaction mixture consisted of 1 ml total volume and contained 0.1 mM III, 0.1 μM phthalyl amidase in 50 mM potassium phosphate buffer (pH 5.5-9.0) at 32° C. for 20 minutes. The reactions were stopped by the addition of 1 ml methanol. After removal of precipitate by centrifugation, an aliquot of the supernatant fraction (typically 30 μl) was monitored for the beta-lactam nucleus and phthalic acid by HPLC using a Zorbax C8 column (0.46×15 cm; MacMod Analytical Inc., Chadds Ford, Pa.). The two reaction products were eluted by a mobile phase constructed as continuous mixed gradients from (a) 1% ACN (acetonitrile)/0.2% TFA (trifluoroacetic acid) and (b) 80% ACN/0.2% TFA as follows: 1) 0% (b), 3min; 2) 0-50% (b), 0.5 min; 3) 50-100% (b), 3 min; 4) 100% (b), 2.5 min; 5) 100-1% (b), 0.1 min; and 6) 0% (b), 5 min. At a flow rate of 1.5 ml/min, retention times of the beta-lactam nucleus and phthalic acid, as measured at 254 nm, were 2.3 and 7.2 min, respectively."}, "[2]": {"assay": "Optimum reaction temperature of phthalyl amidase", "format": "biochemical", "protocol": "Test reactions were carried out similar to Example 5 except that all incubations were performed in 50 mM potassium phosphate buffer at pH 8.2.Solutions of the substrate were pre-incubated for 5 minutes at temperatures between 2° and 60° C. The enzymatic reaction was initiated by the addition of phthalyl amidase and stopped by the addition of 1 ml methanol. Specific activity of the enzyme was determined by monitoring the hydrolysis of III by HPLC as in Example 5."}, "[3]": {"assay": "Phthalyl amidase specific activity with chromogenic substrate (II) during purification (Tables 2 and 3)", "format": "biochemical", "protocol": "The assay reaction mixture (1 ml) consisted of 0.3 μmol of the chromogenic substrate (II) and 0.001-0.5 μg of enzyme preparation in 50 mM potassium phosphate buffer, pH 8.0 (buffer A). The enzymatic reaction was conducted at 30° C. for 10 minutes and the appearance of product was monitored at 380 nm (or 430 nm). The amount of substrate hydrolyzed was calculated from a standard curve of the amine product.\nThe phthalyl amidase activity reported in Table 2 was determined using the chromogenic substrate as in Example 3. A typical reaction mixture in a total volume of 1 ml contained 0.2 mg of the chromogenic substrate and an aliquot of phthalyl amidase in buffer A. The enzymatic reaction was conducted at 30° C. for 10-15 min. Formation of the reaction product was monitored with a spectrophotometer at 430 nm (or 380 nm) and quantitated from a standard curve of the product.\nThe concentrated and diafiltered Super-Q mainstream was applied to a hydroxylapatite column (3.2×40 cm) equilibrated in buffer A. After washing the column with this buffer, phthalyl amidase was eluted using a linear gradient of 0-500 mM phosphate buffer, pH 8.0. Fractions were assayed according to the chromogenic substrate method (see Example 3) and the active fractions were pooled (1 L) and concentrated (400 ml)."}, "[4]": {"assay": "Stability of phthalyl amidase: effect of ionic strength and pH", "format": "physicochemical", "protocol": "The stability of phthalyl amidase at pH values ranging from 6-9 was determined as described in Example 5 at 30° C. in both 20 and 200 mM potassium phosphate buffer. […] In 200 mM buffer, the enzyme retained at least 80% of its activity for 100 hours irrespective of the pH of the incubating medium."}, "[5]": {"assay": "Optimum salt concentration for phthalyl amidase", "format": "biochemical", "settings": "for Specific Activity: pH 8.2, 32° C.", "protocol": "Test reactions were carried out similar to Example 6 except that buffer concentrations ranging from 10 to 200 mM at 32° C. were examined. All other conditions and analyses were the same."}, "[6]": {"assay": "Temperature stability of phthalyl amidase", "format": "physicochemical", "settings": "pH 8.2; for enzyme activity retained: 48 hours", "protocol": "The phthalyl amidase enzyme was also tested for stability at varying temperature. The enzyme was incubated at pH 8.2 in the temperature range of 4°-50° C. for 48 hours in 50 and 200 mM phosphate buffer. […] In 200 mM buffer, 80% of the enzyme activity was retained in temperatures up to 35° C. and 30% of the enzyme activity was retained after 48 hours incubation at 40° C."}, "[7]": {"assay": "Isoelectric focusing of phthalyl amidase", "format": "physicochemical", "protocol": "The molecular weight of the phthalyl amidase was determined to be 49,000 by electrospray mass spectrometry. The enzyme is monomeric with an isoelectric point estimated by isoelectric focusing to be pH 5.5."}}}
{"molecule": "B1", "values": [{"measurement": "Reactive pH range", "setting": "[1]", "result": "5.5 to 9.0", "unit": "pH"}, {"measurement": "optimum pH", "setting": "[1]", "result": "8.0±0.4", "unit": "pH"}, {"measurement": "Optimal pH range for enzyme activity", "setting": "[1]; 32° C., 50 mM potassium phosphate", "result": "≥ 7.8", "unit": "pH"}, {"measurement": "Specific Activity", "setting": "[1]; pH 7.0, 32° C.", "result": 125.4, "unit": "μmol/min/μmol enzyme"}, {"measurement": "Specific Activity", "setting": "[1]; pH 7.2, 32° C.", "result": 130.4, "unit": "μmol/min/μmol enzyme"}, {"measurement": "Specific Activity", "setting": "[1]; pH 7.4, 32° C.", "result": 155.2, "unit": "μmol/min/μmol enzyme"}, {"measurement": "Specific Activity", "setting": "[1]; pH 7.6, 32° C.", "result": 172.5, "unit": "μmol/min/μmol enzyme"}, {"measurement": "Specific Activity", "setting": "[1]; pH 7.8, 32° C.", "result": 184.2, "unit": "μmol/min/μmol enzyme"}, {"measurement": "Specific Activity", "setting": "[1]; pH 8.0, 32° C.", "result": 195.3, "unit": "μmol/min/μmol enzyme"}, {"measurement": "Specific Activity", "setting": "[1]; pH 8.2, 32° C.", "result": 201.2, "unit": "μmol/min/μmol enzyme"}, {"measurement": "Specific Activity", "setting": "[1]; pH 8.4, 32° C.", "result": 208.0, "unit": "μmol/min/μmol enzyme"}, {"measurement": "Specific Activity", "setting": "[1]; pH 8.6, 32° C.", "result": 181.7, "unit": "μmol/min/μmol enzyme"}, {"measurement": "Specific Activity", "setting": "[1]; pH 8.8, 32° C.", "result": 185.1, "unit": "μmol/min/μmol enzyme"}, {"measurement": "Specific Activity", "setting": "[1]; pH 9.0, 32° C.", "result": 33.1, "unit": "μmol/min/μmol enzyme"}, {"measurement": "enzyme activity outside temperature range", "setting": "[2]; below 10° C. and above 50° C., pH 8.2", "result": "Little enzyme activity"}, {"measurement": "temperature of maximum reaction rate", "setting": "[2]; pH 8.2, 50 mM potassium phosphate", "result": 34, "unit": "°C"}, {"measurement": "Spec. Act.", "setting": "[3]; Table 2, Ammonium Sulfate: 67-97% cut", "result": 1.547, "unit": "Units/mg"}, {"measurement": "Spec. Act.", "setting": "[3]; Table 2, Crude Extract", "result": 0.063, "unit": "Units/mg"}, {"measurement": "Spec. Act.", "setting": "[3]; Table 2, Hydroxylapatite", "result": 5.52, "unit": "Units/mg"}, {"measurement": "Spec. Act.", "setting": "[3]; Table 2, Mono P", "result": 7.2, "unit": "Units/mg"}, {"measurement": "Spec. Act.", "setting": "[3]; Table 2, Phenyl-Sepharose", "result": 2.505, "unit": "Units/mg"}, {"measurement": "Spec. Act.", "setting": "[3]; Table 2, Q Sepharose", "result": 1.214, "unit": "Units/mg"}, {"measurement": "Spec. Act.", "setting": "[3]; Table 3 (preparative), Crude Extract", "result": 0.8, "unit": "Units/mg"}, {"measurement": "Spec. Act.", "setting": "[3]; Table 3 (preparative), Hydroxylapatite", "result": 9.0, "unit": "Units/mg"}, {"measurement": "Spec. Act.", "setting": "[3]; Table 3 (preparative), Super-Q", "result": 3.0, "unit": "Units/mg"}, {"measurement": "Optimum ionic strength", "setting": "[4]", "result": "≥ 200", "unit": "mM"}, {"measurement": "ionic strength that enhances pH and temperature stability", "setting": "[4]", "result": "above 20 mM"}, {"measurement": "optimum stability pH", "setting": "[4]", "result": "8.0±0.4", "unit": "pH"}, {"measurement": "pH range of stability", "setting": "[4]", "result": "6-9 pH"}, {"measurement": "enzyme activity lost", "setting": "[4]; 20 mM potassium phosphate, within 2 hours, 30° C., any pH 6-9", "result": "all enzyme activity as lost"}, {"measurement": "enzyme activity retained", "setting": "[4]; 200 mM potassium phosphate, 100 hours, 30° C., pH 6-9", "result": "at least 80%"}, {"measurement": "effect of high salt concentration on specific activity", "setting": "[5]; 10 to 200 mM buffer", "result": "markedly improved the specific activity"}, {"measurement": "Specific Activity", "setting": "[5]; K Phosphate 10 mM", "result": 148, "unit": "μmol/min/μmol enzyme"}, {"measurement": "Specific Activity", "setting": "[5]; K Phosphate 50 mM", "result": 300, "unit": "μmol/min/μmol enzyme"}, {"measurement": "Specific Activity", "setting": "[5]; K Phosphate 100 mM", "result": 350, "unit": "μmol/min/μmol enzyme"}, {"measurement": "Specific Activity", "setting": "[5]; K Phosphate 200 mM", "result": 360, "unit": "μmol/min/μmol enzyme"}, {"measurement": "Specific Activity", "setting": "[5]; NH4 Acetate 10 mM", "result": 25, "unit": "μmol/min/μmol enzyme"}, {"measurement": "Specific Activity", "setting": "[5]; NH4 Acetate 50 mM", "result": 50, "unit": "μmol/min/μmol enzyme"}, {"measurement": "Specific Activity", "setting": "[5]; NH4 Acetate 100 mM", "result": 75, "unit": "μmol/min/μmol enzyme"}, {"measurement": "Specific Activity", "setting": "[5]; NH4 Acetate 200 mM", "result": 100, "unit": "μmol/min/μmol enzyme"}, {"measurement": "Specific Activity", "setting": "[5]; Tris-HCl 10 mM", "result": 73, "unit": "μmol/min/μmol enzyme"}, {"measurement": "Specific Activity", "setting": "[5]; Tris-HCl 50 mM", "result": 230, "unit": "μmol/min/μmol enzyme"}, {"measurement": "Specific Activity", "setting": "[5]; Tris-HCl 100 mM", "result": 275, "unit": "μmol/min/μmol enzyme"}, {"measurement": "Specific Activity", "setting": "[5]; Tris-HCl 200 mM", "result": 300, "unit": "μmol/min/μmol enzyme"}, {"measurement": "enzyme activity lost", "setting": "[6]; 50 mM phosphate, above 40° C., within 48 hours", "result": "all enzyme activity was lost"}, {"measurement": "enzyme activity retained", "setting": "[6]; 50 mM phosphate, below 25° C.", "result": 90, "unit": "%"}, {"measurement": "enzyme activity retained", "setting": "[6]; 200 mM phosphate, 40° C.", "result": 30, "unit": "%"}, {"measurement": "isoelectric point", "setting": "[7]", "result": "~5.5", "unit": "pH"}]}
